Laboratory results: PMC7145421

Biological target: PKR (endogenous) (UniProt Q03963)
Test: FLAG co-immunoprecipitation, western blot
Details: reference: FLAG-WT PACT; sites S246

Substance: PACT (FLAG-tagged wild type and mutant constructs) (from UniProt O75569) FLAG-S246A PACT
- binding against the reference: weaker
